Binding result, Kd and koff data for 15 molecules are collected here from patent EP3010938.

The target in one experiment is T1, mouse FcRn (mouse, UniProt Q61559).
T1 chain 1: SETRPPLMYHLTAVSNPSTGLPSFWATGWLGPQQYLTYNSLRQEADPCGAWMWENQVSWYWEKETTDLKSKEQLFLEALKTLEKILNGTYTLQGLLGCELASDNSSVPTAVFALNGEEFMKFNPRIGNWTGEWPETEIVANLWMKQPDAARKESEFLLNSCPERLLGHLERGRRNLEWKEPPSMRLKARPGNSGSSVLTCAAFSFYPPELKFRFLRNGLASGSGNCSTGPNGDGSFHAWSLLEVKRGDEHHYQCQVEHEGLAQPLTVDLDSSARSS
T1 chain 2: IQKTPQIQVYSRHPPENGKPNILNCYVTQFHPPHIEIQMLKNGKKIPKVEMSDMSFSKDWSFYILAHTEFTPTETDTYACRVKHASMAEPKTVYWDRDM
Nature of the experiment: FACS pH 6.0.

For experiment [1], the target named is T2, shFcRn (human, UniProt P55899). As to the kind of experiment: SPR pH 6.0.
T2 sequence (P55899 24-297, chain 1 of 2): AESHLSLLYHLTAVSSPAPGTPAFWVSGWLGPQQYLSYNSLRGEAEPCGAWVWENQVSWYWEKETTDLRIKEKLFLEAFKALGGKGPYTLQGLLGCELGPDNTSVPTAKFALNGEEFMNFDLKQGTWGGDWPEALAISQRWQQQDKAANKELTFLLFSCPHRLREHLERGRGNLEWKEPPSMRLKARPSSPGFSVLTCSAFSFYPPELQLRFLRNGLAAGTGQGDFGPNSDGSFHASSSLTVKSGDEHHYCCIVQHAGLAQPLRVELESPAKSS
T2 sequence (chain, as listed by the source, chain 2 of 2): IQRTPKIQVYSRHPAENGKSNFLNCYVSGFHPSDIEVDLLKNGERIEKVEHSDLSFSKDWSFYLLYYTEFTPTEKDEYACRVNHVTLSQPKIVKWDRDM
The target in experiment [2] is T2, shFcRn. Nature of the experiment: SPR pH 7.4.
The target of a further experiment is T3, rat FcRn (rat, UniProt P13599).
T3 chain 1: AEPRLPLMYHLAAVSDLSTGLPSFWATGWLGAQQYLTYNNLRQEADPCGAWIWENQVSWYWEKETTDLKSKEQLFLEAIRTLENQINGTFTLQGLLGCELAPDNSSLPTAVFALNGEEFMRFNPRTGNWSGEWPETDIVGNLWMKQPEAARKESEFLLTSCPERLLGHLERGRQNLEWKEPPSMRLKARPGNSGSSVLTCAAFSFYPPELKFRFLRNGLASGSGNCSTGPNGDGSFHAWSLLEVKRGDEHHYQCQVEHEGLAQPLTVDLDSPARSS
T3 chain 2: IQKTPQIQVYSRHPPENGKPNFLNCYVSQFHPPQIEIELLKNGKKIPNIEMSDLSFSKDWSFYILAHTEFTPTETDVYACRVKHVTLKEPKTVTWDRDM
As to the kind of experiment: FACS pH 7.4.

Experiment [3] deals with T2, shFcRn. As to the kind of experiment: SPR pH 7.4. This is another data set of the same source.
Experiment [4] deals with T2, shFcRn. Nature of the experiment: SPR pH 6.0. The source holds these as a separate data set.
Experiment [5] concerns the target T2, shFcRn. As to the kind of experiment: SPR pH 6.0. This is another data set of the same source.
The target in experiment [6] is T2, shFcRn. As to the kind of experiment: SPR pH 7.4. The source holds these as a separate data set.

B1: HL161-11H (antibody)
chain 1: QMQLVESGGGLVQPGRSLRLSCAASGFTFSSYAMHWVRQAPGKGLEWVAVISYDGSNKYYADSVKGRFTISRDNSKNTLYLQMNSLRSEDTAVYYCSRGSGGRDAFDVWGQGTMITVSS
chain 2: DIQMTQSPSTLSASVGDRVTITCRASQSISSRLAWYQQKPGKAPKLLIYKASSLETGVPSRFSGSGSGTEFTLTISSLQPDDFATYYCQQTNSFPLTFGGGTKVEIK
Take B1: the binding result with mouse FcRn and in the experiment with rat FcRn was “no binding” throughout. Further, the Kd (commonly the free concentration of one partner at which half of the binding sites on the other are occupied at equilibrium, for simple one-to-one binding) with shFcRn [1] turned out to be 0.35 nM; with shFcRn [2] it was 0.9 nM.

B2: 11Hg (antibody)
chain 1: QVQLVESGGGVVQPGRSLRLSCAASGFTFSSYAMHWVRQAPGKGLEWVAVISYDGSNKYYADSVKGRFTISRDNSKNTLYLQMNSLRAEDTAVYYCARGSGGRDAFDVWGQGTMITVSS
chain 2: DIQMTQSPSTLSASVGDRVTITCRASQSISSRLAWYQQKPGKAPKLLIYKASSLETGVPSRFSGSGSGTEFTLTISSLQPDDFATYYCQQTNSFPLTFGGGTKVEIK
Turning to B2, the figures for the off-rate constant (koff) with shFcRn [3] and in the experiment with shFcRn [4] were 0.000433 s⁻¹ and 0.000434 s⁻¹, respectively.

B3: HL161-6C (antibody)
chain 1: QVQLVESGAEVKKPGASVKVSCKASGYTFTSYYMHWVRQAPGQGLEWMGIINPSGGSTSYAQKFQGRVTMTRDTSTSTVYMELSSLRSEDTAVYYCARGGGAFDIWGQGTMVTVSS
chain 2: DIQMTQSPSSVSASVGDRVTITCRASQGISNWVAWYQQKPGKAPKLLIYAASSLQSGVPSRFSGSGSGTDFTLTISSLQPEDFAIYYCQQGHSFPYTFGQGTKVEIK
As for B3, the figures for the Kd in the experiment with shFcRn [1] and in the experiment with shFcRn [2] were 1.9 nM and 6.6 nM, respectively.

B4: A12-H04 (antibody)
chain 1: EVQLVESGGGLVQPGRSLRLSCAASGFTFDEYGMHWVRQAPGKGLEWVSGVSWNSGSIAYADSVRGRFTISRDNAKNSLYLQMNSLRAEDTALYYCAKGRLLDVWGQGTTVTVSS
chain 2: QSALTQPASVSGSPGQSITISCTGSSSDVGGYNYVSWYQQHPGKAPKLMIYDVTKRPSGVSNRFSGSKSGNTASLTISGLQAEDEADYYGAYSNTNFYVFGTGTKVTVL
On to B4, for which the off-rate constant (koff) – broadly, a measure of how fast the partners let go of each other – in the experiment with shFcRn [5] stood at 0.00022 s⁻¹; in the experiment with shFcRn [6], 0.00235 s⁻¹.

B5: 1Ag (antibody)
chain 1: EVQLVESGGGLVQPGRSLRLSCAASGFTFDEYGMHWVRQAPGKGLEWVSGVSWNSGSIAYADSVRGRFTISRDNAKNSLYLQMNSLRAEDTALYYCAKGRSMDVWGQGTTVTVSS
chain 2: QSALTQPASVSGSPGQSITISCTGSSSDVGGYNYVSWYQQHPGKAPKLMIYDVTKRPSGVSNRFSGSKSGNTASLTISGLQAEDEADYYCSSYSSSTFYVFGTGTKVTVL
For B5, the off-rate (koff) was 0.000222 s⁻¹ with shFcRn [5] and 0.000212 s⁻¹ with shFcRn [6].

B6: A11-C07 (antibody)
chain 1: EVQLVESGGGLVQPGRSLRLSCAASGFTFDEYGMHWVRQAPGKGLEWVSGVSWNSGSIAYADSVRGRFTISRDNAKNSLYLQMNSLRAEDTALYYCAKGRYSDVWGQGTTVTVSS
chain 2: QSALTQPASVSGSPGQSITISCTGSSSDVGGYNYVSWYQQHPGKAPKLMIYDVTKRPSGVSNRFSGSKSGNTASLTISGLQAEDEADYYASYSSNTFYVFGTGTKVTVL
For B6, the koff with shFcRn [5] worked out at 0.000393 s⁻¹; in the experiment with shFcRn [6], 0.00248 s⁻¹.

B7: HL161-1A (antibody)
chain 1: QVQLVQSGGGLVQPGRSLRLSCAASGFSFGEYGMHWVRQAPGKGLEWVSGVSWNSGSIAYADSVRGRFTISRDNSKNSLYLQMNSLRAEDTAVYYCARGRSMDVWGQGTTVTVSS
chain 2: NFMLTQPASVSGSPGQTITISCTGSSSDVGGYNYVSWYQQHPGKAPQLIIYDVTKRPSGVSNRFSGSKSGNSASLTISGLQAEDEADYYCSSYSSSTFYVFGTGTKVTVL
B7 displayed a Kd with shFcRn [1] of 0.8 nM.

B8: A12-F02 (antibody)
chain 1: EVQLVESGGGLVQPGRSLRLSCAASGFTFDEYGMHWVRQAPGKGLEWVSGVSWNSGSIAYADSVRGRFTISRDNAKNSLYLQMNSLRAEDTALYYCAKGRYLDVWGQGTTVTVSS
chain 2: QSALTQPASVSGSPGQSITISCTGSSSDVGGYNYVSWYQQHPGKAPKLMIYDVTKRPSGVSNRFSGSKSGNTASLTISGLQAEDEADYYGSYDSNTFYVFGTGTKVTVL
As to B8, the koff with shFcRn [5] is 0.000305 s⁻¹; with shFcRn [6] it was 0.000225 s⁻¹.

B9: A12-C09 (antibody)
chain 1: EVQLVESGGGLVQPGRSLRLSCAASGFTFDEYGMHWVRQAPGKGLEWVSGVSWNSGSIAYADSVRGRFTISRDNAKNSLYLQMNSLRAEDTALYYCAKGRTMDVWGQGTTVTVSS
chain 2: QSALTQPASVSGSPGQSITISCTGSSSDVGGYNYVSWYQQHPGKAPKLMIYDVTKRPSGVSNRFSGSKSGNTASLTISGLQAEDEADYYGSYSSNTFYVFGTGTKVTVL
On to B9, for which the figures for the dissociation rate constant (koff) with shFcRn [5] and with shFcRn [6] were 0.000177 s⁻¹ and 0.000909 s⁻¹, respectively.

B10: A11-G06 (antibody)
chain 1: EVQLVESGGGLVQPGRSLRLSCAASGFTFDEYGMHWVRQAPGKGLEWVSGVSWNSGSIAYADSVRGRFTISRDNAKNSLYLQMNSLRAEDTALYYCAKGRLMDVWGQGTTVTVSS
chain 2: QSALTQPASVSGSPGQSITISCTGSSSDVGGYNYVSWYQQHPGKAPKLMIYDVTKRPSGVSNRFSGSKSGNTASLTISGLQAEDEADYYGSYNNNTFYVFGTGTKVTVL
As for B10, the values for the off-rate constant (koff) in the experiment with shFcRn [5] and with shFcRn [6] were 0.000225 s⁻¹ and 0.000496 s⁻¹, respectively.

B11: A12-E05 (antibody)
chain 1: EVQLVESGGGLVQPGRSLRLSCAASGFTFDEYGMHWVRQAPGKGLEWVSGVSWNSGSIAYADSVRGRFTISRDNAKNSLYLQMNSLRAEDTALYYCAKGRILDVWGQGTTVTVSS
chain 2: QSALTQPASVSGSPGQSITISCTGSSSDVGGYNYVSWYQQHPGKAPKLMIYDVTKRPSGVSNRFSGSKSGNTASLTISGLQAEDEADYYGSYNNSTFYVFGTGTKVTVL
As for B11, the results for the off-rate (koff) with shFcRn [5] and with shFcRn [6] were 0.000216 s⁻¹ and 0.00222 s⁻¹, respectively.

B12: A12-E04 (antibody)
chain 1: EVQLVESGGGLVQPGRSLRLSCAASGFTFDEYGMHWVRQAPGKGLEWVSGVSWNSGSIAYADSVRGRFTISRDNAKNSLYLQMNSLRAEDTALYYCAKGRLFDVWGQGTTVTVSS
chain 2: QSALTQPASVSGSPGQSITISCTGSSSDVGGYNYVSWYQQHPGKAPKLMIYDVTKRPSGVSNRFSGSKSGNTASLTISGLQAEDEADYYGSYSNSNFYVFGTGTKVTVL
In the case of B12, the values for the off-rate (koff) in the experiment with shFcRn [5] and in the experiment with shFcRn [6] were 0.000132 s⁻¹ and 0.00137 s⁻¹, respectively.

B13: A12-E01 (antibody)
chain 1: EVQLVESGGGLVQPGRSLRLSCAASGFTFDEYGMHWVRQAPGKGLEWVSGVSWNSGSIAYADSVRGRFTISRDNAKNSLYLQMNSLRAEDTALYYCAKSRSMDVWGQGTTVTVSS
chain 2: QSALTQPASVSGSPGQSITISCTGSSSDVGGYNYVSWYQQHPGKAPKLMIYDVTKRPSGVSNRFSGSKSGNTASLTISGLQAEDEADYYGSYSNNNFYVFGTGTKVTVL
With B13, the results for the koff with shFcRn [5] and with shFcRn [6] were 5.99e-05 s⁻¹ and 0.00115 s⁻¹, respectively.

B14: HL161-11G (antibody)
chain 1: QMQLVESGGGVVQPGRSLRLSCVGSGFNFNSYGIHWVRQAPGKGLEWVGGIFYDGSQVKYADSVKGRVSISRDNSKNTAYLQMNSLRAEDTAVYYCARRNLLDYWGQGTVVTVSS
chain 2: NFMLTQPASVSGSPGQSITISCTGSSSDVGGYNYVSWYQQHPGKAPQLIIYDVTKRPSGVSNRFSGSKSGNSASLTISGLQAEDEADYYCSSYSSSTFYVFGTGTKVTVL
In the case of B14, the Kd with shFcRn [1] was found to be 0.16 nM.

B15: HL161-10E (antibody)
chain 1: QVQLVESGGGLVQPGGSLRLSCAASGFRFSNFAMTWVRQAPGKGLEWVSTLSGSGGSIHHADSVKGRFTISRDNSKNTLYLQMNSLRAEDTAVYYCAKGPLRGQPAYLDPWGQGTLVTVSS
chain 2: SYELTQPLSVSMSPGQTARITCSGDALSKQYASWYQLKPGQAPVVVMYKDTERPSGIPDRFSGSSSGTTVTLTISGVQAEDEADYYCQSITDKSGTDVIFGGGTKLTVL
Consider B15, for which the dissociation constant Kd with shFcRn [1] is 3.8 nM; in the experiment with shFcRn [2], 26 nM.
